This note sets out measurements from the supplement of paper PMC11246515.

± gives the standard deviation of the averaged measurements.

This data set can be described thus: total protein half-life in vivo (active degradation + dilution); higher = more stable protein.
Setting [1] is: E. coli NCM3722 delta-clpP delta-lon delta-hslV, growth: N-lim chemostat, doubling time 6 h.
[2] abbreviates: E. coli NCM3722 delta-clpP, growth: N-lim chemostat, doubling time 6 h.
The mark [3] stands for this setting: E. coli NCM3722 delta-hslV, growth: N-lim chemostat, doubling time 6 h.
The mark [4] stands for this setting: E. coli NCM3722 delta-smpB, growth: N-lim chemostat, doubling time 6 h.
Setting [5] is: wild type E. coli NCM3722, growth: C-lim chemostat, doubling time 3 h.
The mark [6] stands for this setting: wild type E. coli NCM3722, growth: C-lim chemostat, doubling time 6 h.
[7] abbreviates: wild type E. coli NCM3722, growth: C-lim chemostat, doubling time 12 h.
Setting [8] is: wild type E. coli NCM3722, growth: N-lim chemostat, doubling time 6 h.
[9] abbreviates: wild type E. coli NCM3722, growth: N-lim chemostat, doubling time 12 h.
The mark [10] stands for this setting: wild type E. coli NCM3722, growth: P-lim chemostat, doubling time 6 h.
[11] abbreviates: wild type E. coli NCM3722, growth: P-lim chemostat, doubling time 12 h.
Setting [12] is: E. coli NCM3722 delta-lon, growth: N-lim chemostat, doubling time 6 h.

Regarding “MNYEIKQEEKRTVAGFHLVGPWEQTVKKGFEQLMMWVDSKNIVPKEWVAVYYDNPDETPAEKLRCDTVVTVPGYFTLPENSEGVILTEITGGQYAVAVARVVGDDFAKPWYQFFNSLLQDSAYEMLPKPCFEVYLNNGAEDGYWDIEMYVAVQPKHH”, the “total protein half-life in vivo” value by setting is: under setting [1], 4.8 ± 0.93 h; under setting [2], 2.75 h; under setting [3], 3.39 ± 0.23 h; under setting [4], 4.26 ± 1.8 h; under setting [5], 2.22 ± 0.21 h; under setting [6], 3.9 ± 0.048 h. Besides, the “total protein half-life in vivo” value runs as follows: under setting [7], 5.57 ± 0.35 h; under setting [8], 3.16 h; under setting [9], 4.89 ± 0.49 h; under setting [10], 2.6 h; under setting [11], 6.49 ± 0.56 h.
Consider “MKKLITANDIREAHARGEQAMSVVLRASIITPEAREVADLLGFTITECDESIPVTASVPASVPADKTESQRIRETIIAQLPEGQFTESLVAQLMEKVMKEKQSLEQGAMQPSFKSVTGKGGIKVIDGSSVKFGRFDGAEPHCVGLTDLVTGDDGSSMAAGFMQWENAFFPWTLNYDEIDMVLEGELHVRHEGQTMIAKAGDVMFIPKGSSIEFGTTSSVKFLYVAWPANWQSL”, for which the “total protein half-life in vivo” value runs as follows: under setting [1], 5.08 ± 0.37 h; under setting [2], 1.62 h; under setting [3], 1.44 ± 0.19 h; under setting [12], 2.42 ± 0.052 h; under setting [4], 1.55 ± 0.36 h; under setting [5], 2.12 ± 0.14 h. The “total protein half-life in vivo” value reads like this: under setting [6], 4.18 ± 0.51 h; under setting [7], 5.42 ± 1.1 h; under setting [8], 1.84 h; under setting [9], 2.19 h; under setting [10], 2.44 h; under setting [11], 3.93 h.
Regarding “MRLGTFHKKKRFYINKIKINFLSFLFRNKINNQITDPAQVKSCLIIHDNNKLGDLIVLSSIYRELYSKGVKITLLTNRKGGEFLSNNKNIFEFCIKESTGFLEMLTLCKHLRDLQFDIVLDPFETMPSFKHSLILSSLKDSYILGFDHWYKRYYSFYHPHDECLKEHMSTRAIEILKHIYGEGKFSTNYDLHLPVDVEDKIKEFIGDTRIVIINPLGAKKICRLTFEQIKVIYQEVKTHFENYRIIFTGLPQDLLTIPILEIETLPFDEFIYTVALTKYSDFVISVDTALVHIAAAYHKPTLAFYPNSRTPEYPSHLIWSPNHHKSIQIVSPTYTVKDIDTETLTNSVKRLSCIDKK”, the “total protein half-life in vivo” value by setting is: under setting [1], 5.5 ± 0.61 h; under setting [2], 6.56 ± 1.5 h; under setting [3], 5.9 ± 0.57 h; under setting [4], 5.44 ± 0.1 h; under setting [5], 2.96 ± 0.088 h; under setting [7], 11.5 ± 0.51 h. Moreover, the “total protein half-life in vivo” value by setting is: under setting [8], 5.67 ± 0.47 h; under setting [9], 12.8 ± 1.3 h; under setting [10], 5.23 ± 0.19 h; under setting [11], 12.2 ± 0.22 h.
Take “MSEAEARPTNFIRQIIDEDLASGKHTTVHTRFPPEPNGYLHIGHAKSICLNFGIAQDYKGQCNLRFDDTNPVKEDIEYVESIKNDVEWLGFHWSGNVRYSSDYFDQLHAYAIELINKGLAYVDELTPEQIREYRGTLTQPGKNSPYRDRSVEENLALFEKMRAGGFEEGKACLRAKIDMASPFIVMRDPVLYRIKFAEHHQTGNKWCIYPMYDFTHCISDALEGITHSLCTLEFQDNRRLYDWVLDNITIPVHPRQYEFSRLNLEYTVMSKRKLNLLVTDKHVEGWDDPRMPTISGLRRRGYTAASIREFCKRIGVTKQDNTIEMASLESCIREDLNENAPRAMAVIDPVKLVIENYQGEGEMVTMPNHPNKPEMGSRQVPFSGEIWIDRADFREEANKQYKRLVLGKEVRLRNAYVIKAERVEKDAEGNITTIFCTYDADTLSKDPADGRKVKGVIHWVSAAHALPVEIRLYDRLFSVPNPGAADDFLSVINPESLVIKQGFAEPSLKDAVAGKAFQFEREGYFCLDSRHSTAEKPVFNRTVGLRDTWAKVGE”: the “total protein half-life in vivo” value came out at 5.89 ± 0.95 h under setting [1]; 5.11 ± 0.2 h under setting [2]; 4.97 ± 0.059 h under setting [3]; 5.31 ± 0.48 h under setting [12]; 4.92 ± 0.16 h under setting [4]; 3.11 ± 0.31 h under setting [5]. Moreover, the “total protein half-life in vivo” value is 6.39 ± 0.22 h under setting [6]; 11.47 ± 0.028 h under setting [7]; 5.25 ± 0.2 h under setting [8]; 9.02 ± 0.47 h under setting [9]; 5.959 ± 0.047 h under setting [10]; 12.1 ± 0.73 h under setting [11].
In the case of “MHPMLNIAVRAARKAGNLIAKNYETPDAVEASQKGSNDFVTNVDKAAEAVIIDTIRKSYPQHTIITEESGELEGTDQDVQWVIDPLDGTTNFIKRLPHFAVSIAVRIKGRTEVAVVYDPMRNELFTATRGQGAQLNGYRLRGSTARDLDGTILATGFPFKAKQYATTYINIVGKLFNECADFRRTGSAALDLAYVAAGRVDGFFEIGLRPWDFAAGELLVREAGGIVSDFTGGHNYMLTGNIVAGNPRVVKAMLANMRDELSDALKR [P0ADG4]”, the “total protein half-life in vivo” value is, setting by setting: under setting [1], 5.94 ± 0.37 h; under setting [2], 6.49 ± 1.6 h; under setting [3], 5.2 ± 0.23 h; under setting [4], 5.39 ± 0.47 h; under setting [5], 3.01 ± 0.21 h; under setting [6], 6.17 ± 0.55 h. For the same sequence, the “total protein half-life in vivo” value was 12 ± 0.71 h under setting [7]; 5.53 ± 0.19 h under setting [8]; 10.2 ± 0.39 h under setting [9]; 6.063 ± 0.06 h under setting [10]; 14 ± 1 h under setting [11].
“MADTRPERRFTRIDRLPPYVFNITAELKMAARRRGEDIIDFSMGNPDGATPPHIVEKLCTVAQRPDTHGYSTSRGIPRLRRAISRWYQDRYDVEIDPESEAIVTIGSKEGLAHLMLATLDHGDTVLVPNPSYPIHIYGAVIAGAQVRSVPLVEGVDFFNELERAIRESYPKPKMMILGFPSNPTAQCVELEFFEKVVALAKRYDVLVVHDLAYADIVYDGWKAPSIMQVPGARDVAVEFFTLSKSYNMAGWRIGFMVGNKTLVSALARIKSYHDYGTFTPLQVAAIAALEGDQQCVRDIAEQYKRRRDVLVKGLHEAGWMVEMPKASMYVWAKIPEPYAAMGSLEFAKKLLNEAKVCVSPGIGFGDYGDTHVRFALIENRDRIRQAIRGIKAMFRADGLLPASSKHIHENAE”: the “total protein half-life in vivo” value under setting [1] came out at 4.48 ± 0.37 h; the “total protein half-life in vivo” value under setting [2] came out at 4.17 ± 0.25 h; the “total protein half-life in vivo” value under setting [3] is 2.21 ± 0.2 h; the “total protein half-life in vivo” value under setting [12] came out at 2.27 ± 0.23 h; the “total protein half-life in vivo” value under setting [4] was found to be 2.22 ± 0.062 h; the “total protein half-life in vivo” value under setting [5] was determined as 2.43 ± 0.15 h. The “total protein half-life in vivo” value is, setting by setting: under setting [6], 3.92 ± 0.59 h; under setting [7], 7.44 ± 1.7 h; under setting [8], 2.28 ± 0.1 h; under setting [9], 2.92 ± 0.049 h; under setting [10], 4.75 ± 0.82 h; under setting [11], 7.31 ± 0.3 h.
